Reference: patent publication US5747239A, “Synthetic peptides specific for the detection of antibodies to HCV, diagnosis of HCV infection and preventions thereof as vaccines” (United Biomedical, Inc., priority 1994, dated 1998)

Key:
Type in all cases: binding, human
antibodies to HCV [1] = assay: NS-1 peptide ELISA, Panel II (asymptomatic individuals, mainland China and Taiwan)
Experimental: Wells of 96-well plates were coated for 1 hour at 37° C. with each of the 16 peptides (designated as peptides 241A-C, 231A-E, 232A-D, 233C, 234A-C), synthesized according to sequences derived from the NS-1 region (Table 3A), at 5 ug/mL at 100 uL per well in 10 mM NaHCO3 buffer, pH 9.5. Each peptide's immunoreactivity was measured as previously described (see Example 1), using an 8 member serum panel (Panel I).
A panel of serum samples from individuals coming from regions in which hepatitis C is endemic, namely mainland China and Taiwan, were tested for evidence of reactivity to these NS-1 protein derived peptides. Twenty-four samples were chosen from individuals who had no recognizable symptoms of non-A, non-B hepatitis and for whom the peptide based HCV EIA, Format C, as described in Example 11, was nonreactive. Seven of the 24 samples (29%) were reactive against one or more peptides from the NS-1 region, indicative of the presence of long term protective antibodies responsive to this region. This 7 member panel (designated as Panel II, CH1-CH7) was used to further characterize these NS-1 peptides for their immunoreactivity.
The peptide with the greatest reactivity against the serum Panel II again was pep1 (designated 231c in Table 3A). Using this peptide as a standard, the relative immunoreactivity for each of the other 15 peptides from the NS-1 region are calculated in Table 3A.

antibodies to HCV [2] = assay: Peptide ELISA for relative immunoreactivity, 8 member HCV serum panel (Panel I); conditions: for absorbance of the one reactive panel member: reactive with only one of eight
Experimental: As an example to illustrate how relative (%) immunoreactivity for HCV synthetic peptides is measured, wells of 96-well plates are coated for 1 hour at 37° C., with each of the following peptides: IIH, V, VIIIE and pep11 at 5 ug/mL at 100 uL per well in 10 mM NaHCO3 buffer, pH 9.5. The peptide coated wells were then incubated with 250 uL of 3% by weight of gelatin in PBS in 37° C. for 1 hour to block non-specificprotein binding sites, followed by three washes with PBS containing 0.05% by volume of TWEEN 20 and then dried. The test specimens containing a panel of eight well-characterized HCV antibody positive patient sera were diluted with PBS containing 20% by volume normal goat serum, 1% by weight gelatin and 0.05% by volume TWEEN 20 at dilutions of 1:20 volume to volume, respectively. 200 uL of the diluted specimens were added to each of the wells and allowed to react for 15 minutes at 37° C.
The wells were then washed six times with 0.05% by volume TWEEN 20 in PBS in order to remove unbound antibodies. Horseradish peroxidase conjugated goat anti-human IgG was used as a second antibody tracer to bind with the HCV antibody-peptide antigen complex formed in positive wells. 100 uL of peroxidase labeled goat anti-human IgG at a dilution of 1:1800 in 1% by volume normal goat serum, 0.05% by volume TWEEN 20 in PBS was added to each well and incubated at 37° C. for another 15 minutes.
The wells were washed six times with 0.05% by volume TWEEN 20 PBS to remove unbound antibody and reacted with 100 uL of the substrate mixture containing 0.04% by weight orthophenylenediamine (OPD) and 0.12% by volume hydrogen peroxide in sodium citrate buffer, pH 5.0.
This substrate mixture was used to detect the peroxidase label by forming a colored product. Reactions were stopped by the addition of 100 uL of 1.0M H2 SO4 and the A492 mm measured. Results of relative immunoreactivity for each of the peptides obtained from this study are shown in Table A using peptide II H as the reference.

antibodies to HCV [3] = assay: Envelope/NS-1 peptide ELISA, anti-HCV positive plasmapheresis donors with elevated ALT (Panel III); conditions: envelope/NS-1 peptides; Panel III (17 samples); peptide 254B as a standard
Experimental: To select a panel of samples with reactivity to peptides from the envelope/NS-1 region, 97 such samples from anti-HCV positive plasmapheresis donors with elevated ALT levels were tested with peptide 254B. […] 17 samples with the greatest reactivity with peptide 254B were chosen to form a third panel (Panel III) to screen for the immunoreactivity of the other 20 peptides from the envelope/NS-1 region. The individual absorbance values of each of the 17 samples on the four peptides with the greatest reactivity, i.e. 255C (pep7), 254B (pep8), 247B (pep9), and 246D (pep10), are listed in Table 8b.

antibodies to HCV [4] = assay: EIA of NS-3 peptides before and after pH adjustment
Experimental: Peptides dissolved at 1 mg/mL in H2 O, pH 4, were titrated to pH 11 by addition of diluted NaOH. After 5 min at pH 11, the pH of the peptide solution was brought down to 7.0 using diluted HCl. Immunoreactivity of the peptides thus treated was compared with reactivity prior to pH adjustment (Table 4E). Two-to three-fold increases in A492 nm were seen. Some previously non-reactive serum samples were able to react with pH adjusted peptides. For instance, serum sample 1, which is non-reactive to 261C, has an absorbance of 1401 mA when tested with the corresponding pH adjusted peptide.

[5] = NS-3 peptides (Table 4A), Panel I, relative to pep3 (279A)
[6] = NS-5 peptides (Table 12), Panel I, pep11 as a standard
[7] = capsid peptides, Panel I, relative to VIIIE, coated at 5, 1 and 0.2 μg/mL
[8] = serum sample 1, Ctrl (prior to pH adjustment)
[9] = serum sample 1, pH adj (pH 11 for 5 min, then 7.0)

PPLGNWFGCTWMNSTGFTKVCGAPPC [232A]
% IP (antibodies to HCV [1]; NS-1 peptides, Panel II (CH1-CH7), relative to pep1 (231C)): 88.7%
A492 nm by EIA (mA) (antibodies to HCV [1]; Panel II sample CH-1): 202 mA
A492 nm by EIA (mA) (antibodies to HCV [1]; Panel II sample CH-2): 261 mA
A492 nm by EIA (mA) (antibodies to HCV [1]; Panel II sample CH-3): 935 mA
A492 nm by EIA (mA) (antibodies to HCV [1]; Panel II sample CH-4): 1498 mA
A492 nm by EIA (mA) (antibodies to HCV [1]; Panel II sample CH-5): 621 mA
A492 nm by EIA (mA) (antibodies to HCV [1]; Panel II sample CH-6): 1128 mA
A492 nm by EIA (mA) (antibodies to HCV [1]; Panel II sample CH-7): 552 mA

PVVPQSFQVAHLHAPTGSGKSTKVPAAYA [278A]
% IP (antibodies to HCV [2]; [5]): 8.2%

PVVPQSFQVAHLHAPTGSGKSTKVPAAYAAQGYKVLVLNPS [272A]
% IP (antibodies to HCV [2]; [5]): 2.1%

RTITTGSPITYSTYGKFLADGGCSGGAYDIIICDECHSTDATSILGIGTVLDQAETAGARLVVLATATPPGSVTVPHPNIEEVALSTTGEIPFYGKAIPLEVIKGGRHLIFCHSKKKCDEL [261F]
absorbance of the one reactive panel member (antibodies to HCV [2]; Panel I): 269 mA

SECTTPCSGSWLRDIWDWICEVLSDFKTWLKAKLMPQL [314B]
% IP (antibodies to HCV [2]; [6]): 11.6%

TNDCPNSSIVYEAHDAILHTPGCVPCVREGNVSRC [255A]
% Relative Immunoreactivity (antibodies to HCV [3]): 9.8%

TQGCNCSIYPGHITGHRMAWDMMMWSPTA [254A]
% Relative Immunoreactivity (antibodies to HCV [3]): 21.4%

TWAQPGYPWPLYGNEGCGWAGWLLSPRGSRPSWGPTDPRRRSRNLG [IXC]
% Relative Immunoreactivity (antibodies to HCV [2]; [7]): 57.9%

VGGVYLLPRRGPRLGVRATRKTSERSQPRGRR [VIIIB]
% Relative Immunoreactivity (antibodies to HCV [2]; [7]): 48.9%

B1: GGAYDIIICDECHSTDATSILGIGTVLDQAETAGARLVVLATATPPGSVTVPHPNIEEVALSTTGEIPFYGKAIPLEVIKGGRHLIFCHSKKKCDEL (peptide)
chain: GGAYDIIICDECHSTDATSILGIGTVLDQAETAGARLVVLATATPPGSVTVPHPNIEEVALSTTGEIPFYGKAIPLEVIKGGRHLIFCHSKKKCDEL
absorbance of the one reactive panel member (antibodies to HCV [2]; Panel I): 307 mA

B2: AVDFIPVENLETTMRSPVFTDNSSPPVVPQSFQVAHLHAPTGSGKSTKVPAAYAAQGYKVLVLNPS (peptide)
chain: AVDFIPVENLETTMRSPVFTDNSSPPVVPQSFQVAHLHAPTGSGKSTKVPAAYAAQGYKVLVLNPS
% IP (antibodies to HCV [2]; [5]): 11.8%
A492 nm (mA) by EIA (antibodies to HCV [4]; [8]): 8 mA
A492 nm (mA) by EIA (antibodies to HCV [4]; [9]): 973 mA
A492 nm (mA) by EIA (antibodies to HCV [4]; serum sample 2, Ctrl): 74 mA
A492 nm (mA) by EIA (antibodies to HCV [4]; serum sample 2, pH adj): 255 mA
A492 nm (mA) by EIA (antibodies to HCV [4]; serum sample 3, Ctrl): 29 mA
A492 nm (mA) by EIA (antibodies to HCV [4]; serum sample 3, pH adj): 141 mA
A492 nm (mA) by EIA (antibodies to HCV [4]; serum sample 4, Ctrl): 17 mA
A492 nm (mA) by EIA (antibodies to HCV [4]; serum sample 4, pH adj): 158 mA

B3: GRRQPIPKVRRPEGRTWAQPGYPWPLYGNEGCGWAGWLLSPRGSRPSWGPTDPRRRSRNLG (peptide)
peptide: GRRQPIPKVRRPEGRTWAQPGYPWPLYGNEGCGWAGWLLSPRGSRPSWGPTDPRRRSRNLG
% Relative Immunoreactivity (antibodies to HCV [2]; [7]): 50.2%

B4: GCSGGAYDIIICDECHSTDATSILGIGTVLDQAETAGARLVVLATATPPGSVTVPHPNIEEVAL (peptide)
chain: GCSGGAYDIIICDECHSTDATSILGIGTVLDQAETAGARLVVLATATPPGSVTVPHPNIEEVAL
A492 nm (mA) by EIA (antibodies to HCV [4]; [8]): 628 mA
A492 nm (mA) by EIA (antibodies to HCV [4]; [9]): 1604 mA
A492 nm (mA) by EIA (antibodies to HCV [4]; serum sample 2, Ctrl): 148 mA
A492 nm (mA) by EIA (antibodies to HCV [4]; serum sample 2, pH adj): 466 mA
A492 nm (mA) by EIA (antibodies to HCV [4]; serum sample 3, Ctrl): 9 mA
A492 nm (mA) by EIA (antibodies to HCV [4]; serum sample 3, pH adj): 625 mA
A492 nm (mA) by EIA (antibodies to HCV [4]; serum sample 4, Ctrl): 464 mA
A492 nm (mA) by EIA (antibodies to HCV [4]; serum sample 4, pH adj): 1144 mA

B5: AEEDEREISVPAEILRKSRRFAQALPVWARPDYNPPLVETWKKPDYEPPVVHGCPLPPPKSPPVPPPRKKRT (peptide)
chain: AEEDEREISVPAEILRKSRRFAQALPVWARPDYNPPLVETWKKPDYEPPVVHGCPLPPPKSPPVPPPRKKRT
% IP (antibodies to HCV [2]; [6]): 97.2%

B6: KKGEASNGEAENDTHKKQRRYKEKEKTATNNPGKNKKPRVGRIKNWNREGRKDAYQIRKRR (peptide)
peptide: KKGEASNGEAENDTHKKQRRYKEKEKTATNNPGKNKKPRVGRIKNWNREGRKDAYQIRKRR
% Relative Immunoreactivity (antibodies to HCV [2]; Arima clone 1 peptides, relative to peptide VIIIE): 20.7%
